In PMC6632053, “Incorporation of Putative Helix-Breaking Amino Acids in the Design of Novel Stapled Peptides: Exploring Biophysical and Cellular Permeability Properties” (Molecules, 2019):
Bridge positions count the residues as written; N and C are the ends. Square brackets hold non-standard residues; d marks the D form. Primed or numbered codes have the meaning given here. Lys(N3) = [N-]=[N+]=NCCCC[C@H](N)C(=O)O; NMeQ = CN[C@@H](CCC(N)=O)C(=O)O; R8 = C=CCCCCCC[C@@](C)(N)C(=O)O; dCba = N[C@H](CC1CCC1)C(=O)O; S5 = C=CCCC[C@](C)(N)C(=O)O; NMeA = CN[C@@H](C)C(=O)O; Cba′ = not defined here; Aib = CC(C)(N)C(=O)O; βAla = NCCC(=O)O

Key:
human Mdm2 (1–125) [1] = biological target: T1, human Mdm2 (1–125) (human); experiment: fluorescence polarisation; competition: unlabeled peptide titrated against the complex of 250 nM Mdm2 (1–125) and 50 nM FAM-labeled 12/1 peptide; apparent Kd from the tracer's Kd of […] nM; PBS pH 7.4, 0.1% Tween 20; triplicate; conditions: both partners purified
T1 construct: Mdm2, human, residues 1-125; the stretch after the TEV site ENLYFQG of the fusion protein; No cleavage of the tags is described, so it is open whether the fusion or cleaved Mdm2 stood in the FP and ITC assays; also called purified recombinant human Mdm2 protein (amino acids 1–125); source: E. coli BL21 (DE3) Rosetta T1R, purified (Ni-NTA, gel filtration)

human Mdm2 (1–125) [2] = biological target: T1, human Mdm2 (1–125); experiment: as above; conditions: both partners purified; remark: listed apart in the source
human Mdm2 (1–125) [3] = biological target: T1, human Mdm2 (1–125); experiment: cell-based or functional assay
human Mdm2 (1–125) [4] = biological target: T1, human Mdm2 (1–125); experiment: ITC; 100–200 µM peptide titrated into 20 µM Mdm2 (1–125), 40 injections of 1 µL (reverse titration for insoluble peptides); 1× PBS pH 7.2, 3% DMSO, 0.001% Tween-20; duplicates; conditions: both partners purified
human Mdm2 (1–125) [5] = biological target: T1, human Mdm2 (1–125); experiment: cell-based or functional assay; remark: listed apart in the source

T1 sequence (chain, as listed by the source): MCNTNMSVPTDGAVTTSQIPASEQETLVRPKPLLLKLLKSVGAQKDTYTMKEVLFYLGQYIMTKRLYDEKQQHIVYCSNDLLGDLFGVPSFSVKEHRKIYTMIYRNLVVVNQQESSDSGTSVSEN

Binder | Kd (human Mdm2 (1–125) [1]) [nM] | also measured
Ac-LTF[R8]EYWQL[dCba][S5]SAA-NH2 (staple 4-11) [MP-292 Cba10(D-Cba)] | 1650 | –
Ac-[Lys(N3)][βAla]LTF[R8]EYWAG[Cba′][S5]SAA-NH2 (staple 6-13; reading uncertain) [MP-081 Q9G] | – | Kd (human Mdm2 (1–125) [2]): 42 nM
Ac-LTF[Aib][dE]YWQL[Cba′][Aib]SAA-NH2 (reading uncertain) [Linear E5(D-Glu)] | 135 | –
Ac-LTF[R8]EYWQL[Cba′][S5][dS]AA-NH2 (staple 4-11; reading uncertain) [MP-292 S12(D-Ser)] | 8.6 | –
Ac-LTF[R8]EY[dW]QL[Cba′][S5]SAA-NH2 (staple 4-11; reading uncertain) [W6(D-Trp) (MP-384)] | 30 | –
Ac-[dL]TF[Aib]EYWQL[Cba′][Aib]SAA-NH2 (reading uncertain) [Linear L1(D-Leu)] | 277 | –
Ac-LTF[R8]E[dY]WQL[Cba′][S5]SAA-NH2 (staple 4-11; reading uncertain) [MP-292 Y6 (D-Tyr)] | 286 | –
Ac-[Lys(N3)][βAla]LTF[R8]EYWAP[Cba′][S5]SAA-NH2 (staple 6-13; reading uncertain) [MP-081 Q9P] | – | Kd (human Mdm2 (1–125) [2]): 77.1 nM
Ac-[Lys(N3)][βAla]PTF[R8]EYWAQ[Cba′][S5]SAA-NH2 (staple 6-13; reading uncertain) [MP-081 L1P] | – | Kd (human Mdm2 (1–125) [2]): 21.9 nM
Ac-LTF[R8]EYAQL[Cba′][S5]SAA-NH2 (staple 4-11; reading uncertain) [MP-292 W7A] | 5090 | EC50, p53 responsive β-lactamase reporter in HCT116 cells (column Cellular) (human Mdm2 (1–125) [3]): 8800 nM
Ac-[Lys(N3)][βAla]LTF[R8]GYWAQ[Cba′][S5]SAA-NH2 (staple 6-13; reading uncertain) [MP-081 E5G] | – | Kd (human Mdm2 (1–125) [2]): 61.8 nM
Ac-LTF[R8]EAWQL[Cba′][S5]SAA-NH2 (staple 4-11; reading uncertain) [MP-292 Y6A] | 38.9 | –
Ac-[Lys(N3)][βAla]LTF[R8]EYWA[NMeQ][Cba′][S5]SAA-NH2 (staple 6-13; reading uncertain) [MP-081 Q9(N-methyl L-Gln)] | – | Kd (human Mdm2 (1–125) [2]): 211 nM
Ac-LTF[R8]EYWQA[Cba′][S5]SAA-NH2 (staple 4-11; reading uncertain) [MP-292 L9A] | 12 | –
Ac-[dL]TF[R8]EYWQL[Cba′][S5]SAA-NH2 (staple 4-11; reading uncertain) [MP-292 L1(D-Leu)] | 31 | –
Ac-[Lys(N3)][βAla]LTF[R8]EYWAQ[Cba′][S5]SAA-NH2 (staple 6-13; reading uncertain) [MP-081] | – | Kd (human Mdm2 (1–125) [2]): 19 nM

Binder | Kd (human Mdm2 (1–125) [1]) [nM] | also measured
Ac-L[dT]F[R8]EYWQL[Cba′][S5]SAA-NH2 (staple 4-11; reading uncertain) [MP-292 T2(D-Thr)] | 136 | –
Ac-LTF[R8]EYWQL[Cba′][S5]S[dA]A-NH2 (staple 4-11; reading uncertain) [MP-292 A13(D-Ala)] | 17 | –
Ac-LTF[R8]EYW[dQ]L[Cba′][S5]SAA-NH2 (staple 4-11; reading uncertain) [MP-292 Q8(D-Gln)] | 22 | –
Ac-LTF[R8]EYWAL[Cba′][S5]SAA-NH2 (staple 4-11; reading uncertain) [MP-292 Q8A] | 26.5 | –
Ac-LTF[R8]EYWQL[Cba′][S5]SA[dA]-NH2 (staple 4-11; reading uncertain) [MP-292 A14(D-Ala)] | 18 | –
Ac-LTF[R8]EYWQL[Cba′][S5]SAA-NH2 (staple 4-11; reading uncertain) [MP-292] | 18.6 | EC50, p53 responsive β-lactamase reporter in HCT116 cells (column Cellular) (human Mdm2 (1–125) [3]): 540 nM; stoichiometry N (human Mdm2 (1–125) [4]): 1; EC50, p53 responsive β-lactamase reporter in HCT116 cells, 2% serum (data not shown) (human Mdm2 (1–125) [5]): 700 nM; EC50, p53 responsive β-lactamase reporter in HCT116 cells, 10% serum (data not shown) (human Mdm2 (1–125) [5]): 4200 nM
Ac-LTF[R8][dE]YWQL[Cba′][S5]SAA-NH2 (staple 4-11; reading uncertain) [MP-292 E5(D-Glu)] | 32 | –
Ac-LTF[Aib]EYWQL[Cba′][Aib]SAA-NH2 (reading uncertain) [Linear Parent (MP-189)] | 43.1 | –
Ac-LTF[R8]EYWQ[dL][Cba′][S5]SAA-NH2 (staple 4-11; reading uncertain) [MP-292 L9(D-Leu)] | 30 | –
Ac-[Lys(N3)][βAla]LTF[R8]EYW[NMeA]Q[Cba′][S5]SAA-NH2 (staple 6-13; reading uncertain) [MP-081 A8(N-methyl L-Ala)] | – | Kd (human Mdm2 (1–125) [2]): 671 nM
Ac-LTF[R8]EYWQL[Cba′][S5]AAA-NH2 (staple 4-11; reading uncertain) [MP-292 S12A] | 20.4 | –
Ac-LT[dF][R8]EYWQL[Cba′][S5]SAA-NH2 (staple 4-11; reading uncertain) [MP-292 F3(D-Phe)] | 6480 | –
Ac-[Lys(N3)][βAla]GTF[R8]EYWAQ[Cba′][S5]SAA-NH2 (staple 6-13; reading uncertain) [MP-081 L1G] | – | Kd (human Mdm2 (1–125) [2]): 22.1 nM
Ac-[Lys(N3)][βAla]LTF[R8]EYWAQ[Cba′][S5]S[NMeA]A-NH2 (staple 6-13; reading uncertain) [MP-081 A13(N-methyl L-Ala)] | – | Kd (human Mdm2 (1–125) [2]): 10 nM
Ac-LTF[Aib]EYWQ[dL][Cba′][Aib]SAA-NH2 (reading uncertain) [Linear L9(D-Leu)] | 88 | –
